This note sets out measurements from patent US12247072 (ASHER BIOTHERAPEUTICS, dated 2025).

The labels stand for the following.
B1: xhCD8-hIL21 v2 (other)
VH: QVHLQQSGPELVKPGASVKMSCKTSGYTFTKYTMHWVKQGHEESLEWIGHFNPNNDETKYNQKFTGKATLTVDKSSTTAYMELRSLTSDDSALYYCARDGLGLRLFADWGQGTLITVSA
VL: DIQMTQSPASLSASVGETVTITCGASENIYGALNWYQRKQGKSPQLLIFGATNLADGVSSRFSGSGSDRQYSLKISSLHPDDVATYYCQNILDTPWTFGGGTKLEIK
chain: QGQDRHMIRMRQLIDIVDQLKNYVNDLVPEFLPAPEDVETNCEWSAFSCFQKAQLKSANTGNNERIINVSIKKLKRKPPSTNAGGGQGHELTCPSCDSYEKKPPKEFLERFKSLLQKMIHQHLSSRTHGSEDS
notes: Human IgG1/kappa, knob-into-hole, L234A/L235A/G237A; also called xhCD8-Fc-hIL21 v2; exemplary IL-21 polypeptide 2
B2: xhCD8-hIL21 v6 (other)
VH: B1 VH
VL: B1 VL
chain: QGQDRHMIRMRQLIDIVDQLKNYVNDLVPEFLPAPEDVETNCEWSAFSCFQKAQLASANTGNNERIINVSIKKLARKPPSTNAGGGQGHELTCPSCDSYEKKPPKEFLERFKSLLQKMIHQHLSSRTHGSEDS
notes: Human IgG1/kappa, knob-into-hole, L234A/L235A/G237A; also called exemplary IL-21 polypeptide 6
B3: xhCD8-hIL21 v1 (other)
VH: B1 VH
VL: B1 VL
chain: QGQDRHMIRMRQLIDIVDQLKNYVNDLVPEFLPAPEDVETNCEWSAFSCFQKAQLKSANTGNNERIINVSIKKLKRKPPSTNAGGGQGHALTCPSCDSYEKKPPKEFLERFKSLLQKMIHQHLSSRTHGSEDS
notes: Human IgG1/kappa, knob-into-hole, L234A/L235A/G237A; also called exemplary IL-21 polypeptide 1
B4: xhCD8.1-hIL21 v29 (other)
VH: QVQLVQSGAEVKKPGSSVKVSCKASGGTFSSYAISWVRQAPGQGLEWMGGIIPGYATANYAQKFQGRVTITADESTSTAYMELSSLRSEDTAVYYCARDAAGIRLFADWGQGTLVTVSS
VL: DIQMTQSPSSLSASVGDRVTITCRASQSIYGALNWYQQKPGKAPKLLIYGASNLQSGVPSRFSGSGSGTDFTLTISSLQPEDFATYYCQSTYTAPWTFGGGTKVEIK
chain: QGQDRHMIRMRQLIDIVDQLKNYVNDLVPEFLPAPEDVETNCEWSAFSCFQKAQLKSANTGNNERIINVSIKKLKRKPPGGGGEGGGGGEGGCPSCDSYEKKPPKEFLERFKSLLQKMIHQHLSSRTHGSEDS
notes: Human IgG1/kappa, knob-into-hole, L234A/L235A/G237A
B5: xhCD8.1-hIL21 v2.7 (other)
VH: B4 VH
VL: B4 VL
chain: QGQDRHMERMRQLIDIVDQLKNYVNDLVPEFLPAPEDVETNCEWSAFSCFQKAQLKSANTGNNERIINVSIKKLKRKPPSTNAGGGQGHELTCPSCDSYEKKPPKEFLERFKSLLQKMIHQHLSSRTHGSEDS
notes: as for B4
B6: xhCD8.1-hIL21 v2.30 (other)
VH: B4 VH
VL: B4 VL
chain: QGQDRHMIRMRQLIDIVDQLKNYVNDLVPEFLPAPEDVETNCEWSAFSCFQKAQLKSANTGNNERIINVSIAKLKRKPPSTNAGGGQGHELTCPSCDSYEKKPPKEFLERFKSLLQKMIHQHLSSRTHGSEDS
notes: as for B4
B7: xhCD8.1-hIL21 v2.39 (other)
VH: B4 VH
VL: B4 VL
chain: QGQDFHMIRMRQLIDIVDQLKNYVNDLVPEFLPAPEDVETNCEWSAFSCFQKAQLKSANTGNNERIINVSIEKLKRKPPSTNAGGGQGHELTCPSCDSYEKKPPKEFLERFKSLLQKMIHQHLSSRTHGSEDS
notes: as for B4
B8: xhCD8.1-hIL21 v2.40 (other)
VH: B4 VH
VL: B4 VL
chain: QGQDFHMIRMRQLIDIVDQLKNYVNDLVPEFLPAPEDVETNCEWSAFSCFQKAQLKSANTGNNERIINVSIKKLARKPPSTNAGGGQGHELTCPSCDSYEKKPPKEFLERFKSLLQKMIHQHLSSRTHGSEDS
notes: as for B4
B9: xhCD8.1-hIL21 v2.29 (other)
VH: B4 VH
VL: B4 VL
chain: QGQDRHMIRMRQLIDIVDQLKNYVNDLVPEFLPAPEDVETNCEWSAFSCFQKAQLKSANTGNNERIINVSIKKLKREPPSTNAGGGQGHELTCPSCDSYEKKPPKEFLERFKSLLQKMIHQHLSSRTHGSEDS
notes: as for B4
B10: xhCD8.1-hIL21 v2.37 (other)
VH: B4 VH
VL: B4 VL
chain: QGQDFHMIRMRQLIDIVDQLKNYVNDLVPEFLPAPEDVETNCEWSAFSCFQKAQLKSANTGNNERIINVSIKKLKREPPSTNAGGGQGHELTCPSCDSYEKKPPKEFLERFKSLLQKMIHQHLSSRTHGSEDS
notes: as for B4
B11: xhCD8.1-hIL21 v2.20 (other)
VH: B4 VH
VL: B4 VL
chain: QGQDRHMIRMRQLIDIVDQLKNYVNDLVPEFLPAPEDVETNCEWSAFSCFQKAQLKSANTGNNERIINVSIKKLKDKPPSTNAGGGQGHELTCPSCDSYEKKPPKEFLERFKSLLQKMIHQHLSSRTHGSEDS
notes: as for B4
B12: xhCD8.1-hIL21 v2.42 (other)
VH: B4 VH
VL: B4 VL
chain: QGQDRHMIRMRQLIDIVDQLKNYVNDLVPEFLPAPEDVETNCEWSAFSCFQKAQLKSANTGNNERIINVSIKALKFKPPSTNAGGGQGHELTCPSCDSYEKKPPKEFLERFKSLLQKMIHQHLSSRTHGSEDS
notes: as for B4
B13: xhCD8.1-hIL21 v2.9 (other)
VH: B4 VH
VL: B4 VL
chain: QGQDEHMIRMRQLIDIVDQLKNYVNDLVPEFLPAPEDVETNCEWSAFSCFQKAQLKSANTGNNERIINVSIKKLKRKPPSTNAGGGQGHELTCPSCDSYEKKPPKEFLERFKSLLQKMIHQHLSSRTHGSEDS
notes: as for B4
B14: xhCD8.1-hIL21 v2.31 (other)
VH: B4 VH
VL: B4 VL
chain: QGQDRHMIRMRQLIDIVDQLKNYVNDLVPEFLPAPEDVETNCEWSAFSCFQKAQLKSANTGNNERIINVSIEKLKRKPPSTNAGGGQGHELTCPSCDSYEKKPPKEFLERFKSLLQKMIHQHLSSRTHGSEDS
notes: as for B4
B15: xhCD8.1-hIL21 v2.33 (other)
VH: B4 VH
VL: B4 VL
chain: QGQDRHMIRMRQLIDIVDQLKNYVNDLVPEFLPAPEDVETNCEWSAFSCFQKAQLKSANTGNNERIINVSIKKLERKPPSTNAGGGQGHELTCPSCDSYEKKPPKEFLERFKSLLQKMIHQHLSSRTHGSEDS
notes: as for B4
B16: xhCD8.1-hIL21 v2.32 (other)
VH: B4 VH
VL: B4 VL
chain: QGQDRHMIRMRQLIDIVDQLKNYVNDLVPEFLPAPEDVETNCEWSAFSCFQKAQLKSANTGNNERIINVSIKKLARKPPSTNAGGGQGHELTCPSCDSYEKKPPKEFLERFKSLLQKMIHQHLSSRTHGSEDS
notes: as for B4
B17: xhCD8.1-hIL21 v2.41 (other)
VH: B4 VH
VL: B4 VL
chain: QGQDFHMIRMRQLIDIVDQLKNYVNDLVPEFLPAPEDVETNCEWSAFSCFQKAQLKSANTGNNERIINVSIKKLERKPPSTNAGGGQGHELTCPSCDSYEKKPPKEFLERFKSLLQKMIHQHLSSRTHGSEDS
notes: as for B4
B18: xhCD8.1-hIL21 v2.43 (other)
VH: B4 VH
VL: B4 VL
chain: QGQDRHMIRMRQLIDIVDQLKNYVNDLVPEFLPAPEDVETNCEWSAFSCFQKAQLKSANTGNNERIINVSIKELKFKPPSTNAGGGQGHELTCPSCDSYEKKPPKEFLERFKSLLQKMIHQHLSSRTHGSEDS
notes: as for B4
B19: xhCD8.1-hIL21 v2.45 (other)
VH: B4 VH
VL: B4 VL
chain: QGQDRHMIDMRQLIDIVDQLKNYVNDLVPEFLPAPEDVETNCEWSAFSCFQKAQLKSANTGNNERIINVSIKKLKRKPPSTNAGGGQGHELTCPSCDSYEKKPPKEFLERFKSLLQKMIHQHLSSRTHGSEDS
notes: as for B4
B20: xhCD8.1-hIL21 v2.58 (other)
VH: B4 VH
VL: B4 VL
chain: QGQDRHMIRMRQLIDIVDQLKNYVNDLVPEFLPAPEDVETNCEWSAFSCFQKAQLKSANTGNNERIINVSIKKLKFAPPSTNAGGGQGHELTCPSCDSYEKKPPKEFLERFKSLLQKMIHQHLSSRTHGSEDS
notes: as for B4
B21: xhCD8.1-hIL21 v2.46 (other)
VH: B4 VH
VL: B4 VL
chain: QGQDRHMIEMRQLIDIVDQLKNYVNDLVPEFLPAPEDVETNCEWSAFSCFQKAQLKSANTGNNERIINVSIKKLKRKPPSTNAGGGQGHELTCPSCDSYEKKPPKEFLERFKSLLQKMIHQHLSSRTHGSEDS
notes: as for B4
B22: xhCD8.1-hIL21 v2.36 (other)
VH: B4 VH
VL: B4 VL
chain: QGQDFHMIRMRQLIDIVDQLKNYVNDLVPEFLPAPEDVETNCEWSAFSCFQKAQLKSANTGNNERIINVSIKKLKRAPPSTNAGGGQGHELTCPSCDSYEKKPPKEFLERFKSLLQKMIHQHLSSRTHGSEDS
notes: as for B4
B23: xhCD8.1-hIL21 v2.34 (other)
VH: B4 VH
VL: B4 VL
chain: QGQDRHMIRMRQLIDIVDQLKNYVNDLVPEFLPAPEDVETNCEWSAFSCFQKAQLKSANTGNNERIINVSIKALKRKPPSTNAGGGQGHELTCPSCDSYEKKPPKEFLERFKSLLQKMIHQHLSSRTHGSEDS
notes: as for B4
B24: xhCD8.1-hIL21 v2.28 (other)
VH: B4 VH
VL: B4 VL
chain: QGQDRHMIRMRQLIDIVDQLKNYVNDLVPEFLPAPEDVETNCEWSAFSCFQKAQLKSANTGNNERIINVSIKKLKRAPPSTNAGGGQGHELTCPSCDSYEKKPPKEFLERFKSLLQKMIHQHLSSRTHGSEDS
notes: as for B4
B25: xhCD8.1-hIL21 v2.38 (other)
VH: B4 VH
VL: B4 VL
chain: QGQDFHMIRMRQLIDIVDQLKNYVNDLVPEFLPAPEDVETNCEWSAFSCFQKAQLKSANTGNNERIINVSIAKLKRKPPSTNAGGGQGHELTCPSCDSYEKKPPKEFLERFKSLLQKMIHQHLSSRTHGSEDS
notes: as for B4

What is called Kd is the constant that tells how readily two partners part at equilibrium. One may read the koff as a measure of how fast the partners let go of each other. For orientation: kon means the second-order rate constant of association.
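For koff in this document: fc fusion proteins captured on an anti-human IgG Fc Biacore surface, 10 min dissociation, double-referenced data fitted to a 1:1 Langmuir model with mass transport, triplicate runs.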
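For kon in this document: fc fusion proteins captured on an anti-human IgG Fc Biacore surface, 10 min dissociation, double-referenced data fitted to a 1:1 Langmuir model with mass transport, triplicate runs.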

Chain of Recombinant human IL-21R, extracellular domain fused to 8x Histidine tag (generated in house) (Q9HBE5 other isoform, or with tags, fused parts or gaps limits assumed): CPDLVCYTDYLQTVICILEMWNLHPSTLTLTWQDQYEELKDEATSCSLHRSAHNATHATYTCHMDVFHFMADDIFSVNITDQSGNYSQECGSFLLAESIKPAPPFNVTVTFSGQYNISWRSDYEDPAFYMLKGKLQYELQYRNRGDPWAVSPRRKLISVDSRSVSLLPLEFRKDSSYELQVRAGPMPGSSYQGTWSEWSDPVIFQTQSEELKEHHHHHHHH

In one experiment the target is T1, Human IL-21R (Biolegend, Catalog No. 773104) (human, UniProt Q9HBE5 20-232, limits assumed).
T1 construct: Bought; also called human IL-21 receptor
T1 sequence (Q9HBE5 20-232 limits assumed): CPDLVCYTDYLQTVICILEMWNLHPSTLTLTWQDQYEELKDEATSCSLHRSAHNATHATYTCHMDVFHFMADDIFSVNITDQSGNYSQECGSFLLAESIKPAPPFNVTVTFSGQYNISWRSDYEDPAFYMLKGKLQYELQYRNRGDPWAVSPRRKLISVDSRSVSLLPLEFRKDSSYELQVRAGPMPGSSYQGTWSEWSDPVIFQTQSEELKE
The experiment in a line: SPR, 37 C. A general note: SPR reads the build-up and loss of mass on a sensor chip optically.
For the molecule B1, the “fold difference of IL-21R affinity against wild type IL-21” value was at most 2 fold. Same read-out and setting: under B2 stands around 3 fold; under B3, at most 2 fold. Regarding B4, the “fold difference of IL-21R affinity against wild type IL-21” value is at most 2 fold.

A further experiment concerns the target Recombinant human IL-21R, extracellular domain fused to 8x Histidine tag (generated in house) (human, UniProt Q9HBE5 20-232). The experiment in a line: SPR, 37 C.
Take B5: the Kd is 156 nM. Same read-out and setting: under B6 stands 0.419 nM; under B7, 614 nM; under B8, 54.7 nM. On to B9, for which the Kd stood at 2.8 nM. With B10, the Kd worked out at 601 nM. Consider B11, for which the binding result was “no binding (tested: highest concentration tested)”. As for B12, the binding result is recorded as “no binding (tested: highest concentration tested)”. With B13, the Kd is 420 nM. On the same count and under the same terms, under B14 stands 3.4 nM.

Regarding B15, the Kd was 1.3 nM. As for B16, the Kd turned out to be 0.236 nM. On the same count and under the same terms, under B17 stands 104 nM. Regarding B18, the binding result was “no binding (tested: highest concentration tested)”. Consider B19, for which the binding result is given as “no binding (tested: highest concentration tested)”.

As for B20, the equilibrium dissociation constant (Kd) came to 420 nM. In the case of B21, the binding result is listed as “no binding (tested: highest concentration tested)”. As to B22, the Kd came to 125 nM. On the same count and under the same terms, under B23 stands 2 nM; under B24, 0.693 nM. As for B25, the Kd turned out to be 66.9 nM.

The target of the next experiment is T1, Human IL-21R (Biolegend, Catalog No. …). The experiment is described as follows: SPR, 37 C. This is another data set of the same source.
B1 came in with a Kd of 0.122 nM, a koff of 0.0011 s⁻¹ and a kon of 8.9e+06 M⁻¹ s⁻¹.

B2 yielded a Kd of 0.478 nM, a koff of 0.0025 s⁻¹ and a kon of 5.2e+06 M⁻¹ s⁻¹.

Turning to B3, the Kd turned out to be 0.117 nM, the off-rate constant (koff) was 0.00097 s⁻¹ and the kon is 8.3e+06 M⁻¹ s⁻¹.

Turning to B4, the Kd stood at 0.094 nM, the koff is 0.00119 s⁻¹ and the kon is 1.27e+07 M⁻¹ s⁻¹.
